Results from patent US10583184B2, “Artificial antigen produced using partial sequence of enolase protein originated from plasmodium falciparum, and method for producing same” (priority 2014, dated 2020).
Entries after “also recorded” stand apart in the source; their conditions may differ.

How the values were obtained:
plasminogen [1] = molecular target: T1, plasminogen (Homo sapiens, UniProt P00747); assay: Reactivity of peptide library with plasminogen, Dot-Blot method; type: binding; conditions: peptide immobilized on nitrocellulose film; HRP-labeled anti-plasminogen antibody; DAB staining
T1 sequence (P00747 20-810 limits assumed): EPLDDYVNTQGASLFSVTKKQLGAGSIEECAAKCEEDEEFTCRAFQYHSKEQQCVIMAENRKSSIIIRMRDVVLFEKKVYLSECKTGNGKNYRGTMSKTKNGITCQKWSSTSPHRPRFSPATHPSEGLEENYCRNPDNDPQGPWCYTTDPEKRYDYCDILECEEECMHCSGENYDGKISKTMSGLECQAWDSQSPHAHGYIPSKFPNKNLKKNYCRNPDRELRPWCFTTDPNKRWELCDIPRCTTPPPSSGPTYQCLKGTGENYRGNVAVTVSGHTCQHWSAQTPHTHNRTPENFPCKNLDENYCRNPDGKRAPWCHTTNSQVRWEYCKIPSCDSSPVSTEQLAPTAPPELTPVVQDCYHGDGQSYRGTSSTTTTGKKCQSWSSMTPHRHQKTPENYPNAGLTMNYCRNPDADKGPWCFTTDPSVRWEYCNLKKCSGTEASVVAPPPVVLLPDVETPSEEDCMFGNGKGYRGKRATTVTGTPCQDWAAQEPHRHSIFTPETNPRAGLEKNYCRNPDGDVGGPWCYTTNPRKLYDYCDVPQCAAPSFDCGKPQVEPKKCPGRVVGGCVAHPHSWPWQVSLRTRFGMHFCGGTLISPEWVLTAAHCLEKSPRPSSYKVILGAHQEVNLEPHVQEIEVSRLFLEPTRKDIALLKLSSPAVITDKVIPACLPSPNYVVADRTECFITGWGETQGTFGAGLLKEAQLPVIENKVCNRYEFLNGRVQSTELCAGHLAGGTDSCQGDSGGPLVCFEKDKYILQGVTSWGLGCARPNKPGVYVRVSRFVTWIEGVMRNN
Source text: FIG. 11 is a photograph after staining with DAB reagent in a Dot-Blot measurement, for detecting the binding between each of the peptide 1 to peptide 8 and plasminogen. The numbers 1 to 8 in FIG. 11 indicate the locations at which peptide solutions of the peptide 1 to peptide 8 were dropped, respectively, and P indicates the locations at which plasminogen solutions (positive control) were dropped.
(§1) A peptide library of peptides 1 to 8 (SEQ ID NOs: 10 to 17), which are divided peptides obtained from a 35-residue sequence of 254th to 288th residues (FIG. 2) of the amino acid sequence of the parasite enolase, was used. Each of the peptides of the peptide library was allowed to react with plasminogen using a Dot-Blot method and an ELISA method, thereby carrying out a search for an amino acid sequence recognized by plasminogen.
The reactivity of the peptides was measured by a Dot-Blot method, using a 10% acetonitrile solution of each of 8 types of peptides, peptide 1 to peptide 8, by the following steps in the following order; (a) immobilization of each peptide on a nitrocellulose film (pore size: 0.45 μm); (b) reaction with plasminogen in a plasminogen solution; (c) reaction with an HRP-labeled anti-plasminogen antibody; and (d) DAB staining.

plasminogen [2] = molecular target: T1, plasminogen; assay: Reactivity of peptide library with plasminogen, ELISA method; type: binding; conditions: peptide immobilized in wells; plasminogen 1 μg/well; HRP modified anti-plasminogen antibody, TMB staining
Protocol: FIG. 12 is a photograph of a plate after staining with TMB reagent in an ELISA measurement, for detecting the binding between each of the peptide 1 to peptide 8 and plasminogen. Each of the peptide 1 to peptide 8 was immobilized in each of the wells of the plate, and then allowed to react with plasminogen. Detection of binding was carried out by staining with an HRP modified-anti-plasminogen antibody and TMB reagent.
FIG. 13 is a graph of absorbance data (at 450 nm) taken after staining with TMB in an ELISA measurement, for detecting the binding between each of the peptide 1 to peptide 8 and plasminogen (plasminogen concentration: 1 μg/well).
as §1
Next, in order to digitize and quantify the reaction of the peptide library with plasminogen, the detection of binding by an ELISA method was carried out.

P. falciparum = assay: Vaccine trial in owl monkeys; type: in vivo; conditions: 13 owl monkeys, vaccinated
Protocol: Subsequently, a vaccine trial was carried out using as antigens enolase derived from P. falciparum and an AD22 partial sequence peptide, and using 13 owl monkeys. The changes in the percentage of parasitism of P. falciparum in red blood cells in the peripheral blood of the owl monkeys were plotted.
The antigen which causes owl monkeys to acquire immunity is a chemically synthesized peptide antigen having a tandem structure in which four 22-residue peptides (AD22) are tandemly arranged, and has a structure represented by the following Structural Formula (A). Although Xaa in the Structural Formula (A) of the antigen is arbitrary, a Cys(Acm) residue, which is a Cys residue whose side chain is protected by an acetamidomethyl group, is used at this time.

| Molecule | binding of peptide chains with plasminogen (plasminogen [1]) | reactivity with plasminogen (absorbance at 450 nm) (plasminogen [2]) | percentage of parasitism of P. falciparum in red blood cells in the peripheral blood (P. falciparum) |
| --- | --- | --- | --- |
| 2: divided peptide from the 254th to 288th residue sequence of parasite enolase; SEQ ID NO: 11 (FYNSENKTYDK; listed as Plasmodium falciparum) [compound 2] | binding of peptide chains with plasminogen was observed | – | – |
| 5: 10-residue divided peptide from the 254th to 288th residue sequence of parasite enolase; SEQ ID NO: 14 (PNNDKSLVKTK; listed as Plasmodium falciparum) [compound 5] | – | relatively high reactivity with plasminogen | – |
| peptide 3: 10-residue divided peptide of parasite enolase, NKT sequence then YDLDFKT sequence; SEQ ID NO: 12 (NKTYDLDFKTK; listed as Plasmodium falciparum) | binding of peptide chains with plasminogen was observed | relatively high reactivity with plasminogen; also recorded: highest reactivity with plasminogen, among the 10-residue peptides | – |
| peptide 7: 25-residue peptide sequence from the 254th to 288th residues of parasite enolase; SEQ ID NO: 16 (VAASEFYNSENKTYDLDFKTPNNDK; listed as Plasmodium falciparum) | binding of peptide chains with plasminogen was observed | high reactivity with plasminogen | – |
| peptide 8: 35-residue peptide sequence, 254th to 288th residues of parasite enolase; SEQ ID NO: 17 (VAASEFYNSENKTYDLDFKTPNNDKSLVKTGAQLVK; listed as Plasmodium falciparum) | binding of peptide chains with plasminogen was observed | high reactivity with plasminogen | – |
| enolase derived from P. falciparum: P. falciparum-derived enolase, a glycolytic enzyme, used as vaccine antigen (protein, UniProt Q8IJN7 1-446, looked up) Enolase: MAHVITRINAREILDSRGNPTVEVDLETNLGIFRAAVPSGASTGIYEALELRDNDKSRYLGKGVQKAIKNINEIIAPKLIGMNCTEQKKIDNLMVEELDGSKNEWGWSKSKLGANAILAISMAVCRAGAAANKVSLYKYLAQLAGKKSDQMVLPVPCLNVINGGSHAGNKLSFQEFMIVPVGAPSFKEALRYGAEVYHTLKSEIKKKYGIDATNVGDEGGFAPNILNANEALDLLVTAIKSAGYEGKVKIAMDVAASEFYNSENKTYDLDFKTPNNDKSLVKTGAQLVDLYIDLVKKYPIVSIEDPFDQDDWENYAKLTAAIGKDVQIVGDDLLVTNPTRITKALEKNACNALLLKVNQIGSITEAIEACLLSQKNNWGVMVSHRSGETEDVFIADLVVALRTGQIKTGAPCRSERNAKYNQLLRIEESLGNNAVFAGEKFRLQLN | – | – | a rapid increase in the percentage of parasitism was in inhibited |
